Laboratory results published in US20160017016A1 (AstraZeneca / MedImmune, published 2016).
*1 amine or outer side, *2 acyl side, *3 side chain or, on linkers, in order; H or OH if unused. Primed or numbered codes have the meaning given here. Where no end group is shown, it is not given here. Side-chain parts run from the residue outwards. [ ]: non-standard residue; d: D form. The star is where a group is joined. PEG4′ = 4 PEG units (K(PEGxpalm): Lys with x PEG units and palmitoyl at epsilon N, C-terminal (PEG)4); γGlu = O=C(O)[C@H](CCC(=O)[*:2])N[*:1]; Palmitoyl = CCCCCCCCCCCCCCCC(=O)*; PEG12′ = not defined here

What was measured:
[1] = molecular target: human GLP-1 receptor (GLP-1R) (human, UniProt P43220 24-463); test: cell-based or functional assay
[2] = molecular target: human glucagon receptor (GCGR) (human, UniProt P47871 26-477); test: cell-based or functional assay
Sequence of human glucagon receptor (GCGR) (P47871 26-477): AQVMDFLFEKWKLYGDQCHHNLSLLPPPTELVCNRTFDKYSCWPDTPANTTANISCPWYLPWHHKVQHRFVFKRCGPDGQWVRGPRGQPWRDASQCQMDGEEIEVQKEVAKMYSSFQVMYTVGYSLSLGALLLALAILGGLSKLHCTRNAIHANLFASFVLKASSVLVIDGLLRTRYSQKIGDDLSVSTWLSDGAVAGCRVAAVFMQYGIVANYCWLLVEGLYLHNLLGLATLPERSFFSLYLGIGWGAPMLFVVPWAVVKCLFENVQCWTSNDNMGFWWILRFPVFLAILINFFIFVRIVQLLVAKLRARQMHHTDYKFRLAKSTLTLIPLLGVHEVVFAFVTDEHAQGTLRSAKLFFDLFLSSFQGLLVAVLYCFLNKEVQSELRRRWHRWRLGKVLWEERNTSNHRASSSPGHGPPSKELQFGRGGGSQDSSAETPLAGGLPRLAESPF

| cAMP activity, GLP1 EC50 nM [1] | cAMP activity, Glcg EC50 nM [2] | Binder |
| --- | --- | --- |
| 0.2 nM | 0.04 nM | HSQGTFTSDYSRYLDSK([γGlu-Palmitoyl])RARDFVAWLV[PEG4′] [g827] |
| 1.6 nM | 0.08 nM | HSQGTFTSDYSKYLDSRRAQDFVQWLV (C-terminal 6-aminohexanoic acid (Ahx)) [g357] |
| 0.03 nM | 0.001 nM | HSQGTFTSDYSKYLDSXRAQDFVQWLE (K(PEG2-palm) at 17; C-terminal PEG4) [g502] |
| 0.07 nM | 0.2 nM | HGQGTFTSDYSKYLDSK([γGlu-Palmitoyl])RAQDFVEWLV[PEG4′] [g694] |
| 0.008 nM | 0.002 nM | HSQGTFTSDYSKYLDKRRAQDFVQWLV[PEG4′] (not fully specified (residue 16); printed as HSQGTFTSDYSKYLDB1RRAQDFVQWLVZ4) [g425] |
| 0.03 nM | 0.004 nM | HSQGTFTSDYSKYLDSRRAXDFVQWLV (K(PEG4-palm) at 20; C-terminal PEG4) [g457] |
| 0.4 nM | 0.009 nM | HSQGTFTSDYSKYLDK([γGlu-Palmitoyl])RRAQDFVQWLV[PEG4′] [g424] |
| 0.1 nM | > 2 nM | HGQGTFTSDYSKYLDSK([γGlu-Palmitoyl])RAEDFVQWLV[PEG4′] [g693] |
| 3.2 nM | 0.03 nM | HSQGTFTSDYSKYLDSRRAQDFVQWLV (C-terminal 11-aminoundecanoic acid (Aud)) [g358] |
| 0.8 nM | > 1800 nM | HGQGTFTSDYSKYLDSEK([γGlu-Palmitoyl])ARDFVAWLV[PEG4′] [g735] |
| 0.04 nM | 0.02 nM | HSQGTFTSDYSKYLDSK([γGlu-Palmitoyl])RAQRDFVAWLV[PEG12′] (not fully specified; printed as HSQGTFTSDYSKYLDSBRAQRDFVAWLVZ12) [g828] |
| 0.004 nM | 0.002 nM | HSQGTFTSDYSKYKDSRRAQDFVQWLV[PEG4′] (not fully specified (residue 14); printed as HSQGTFTSDYSKYB1DSRRAQDFVQWLVZ4) [g427] |
| 0.01 nM | 0.004 nM | HSQGTFTSDYSKYLDSRKAQDFVQWLV[PEG4′] (not fully specified (residue 18); printed as HSQGTFTSDYSKYLDSRB1AQDFVQWLVZ4) [g423] |
| 0.03 nM | 0.03 nM | HSQGTFTSDYSKYLDK([PEG4′-Palmitoyl])SRARDFVAWLV[PEG4′] [g972] |
| 0.09 nM | 0.002 nM | HSQGTFTSDYSKYLDK([PEG4′-Palmitoyl])RRAQDFVQWLE[PEG4′] [g495] |
| 0.1 nM | 0.02 nM | HGQGTFTSDYSKYK([γGlu-Palmitoyl])DSRRAQDFVQWLV[PEG4′] [g514] |
| 0.02 nM | 0.002 nM | HSQGTFTSDYSKYLDSXRAQDFVQWLE (K(PEG3-palm) at 17; C-terminal PEG4) [g503] |
| 0.004 nM | 0.005 nM | HSQGTFTSDYSKYLDSXRAQDFVQWLE (not fully specified; K(PEG4-palm) at 17; C-terminal PEG4) [g429] |
| 0.5 nM | 0.08 nM | HSQGTFTSDYSKYLDSRK([γGlu-Palmitoyl])AQDFVQWLE[PEG4′] [g454] |
| 0.6 nM | 2 nM | HGQGTFTSDYSKYLESK([γGlu-Palmitoyl])RAQDFVQWLV[PEG4′] [g498] |
| 0.2 nM | 0.7 nM | HSQGTFTSDYSKYLDSRK([γGlu-Palmitoyl])AQDFVQWLV[PEG4′] [g422] |
| 0.02 nM | 0.003 nM | HSQGTFTSDYSXYLDSRRAQDFVQWLV (not fully specified; K(PEG4-palm) at 12; C-terminal PEG4) [g417] |
| 0.2 nM | 4 nM | HGQGTFTSDYSEYLDSK([γGlu-Palmitoyl])RAQDFVQWLV[PEG4′] [g695] |
| 0.1 nM | 0.4 nM | HSEGTFTSDYSKYK([γGlu-Palmitoyl])DSRRAQDFVQWLV[PEG4′] [g515] |
